Data published in the domain aggregation screens of Martell et al. (2025).

Assay: soluble fraction after stress (log2 fold change); higher = more stays soluble; pooled small domains, quantitative proteomics
Settings: stress: 75 degC
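Note: 20 min heating vs room temperature control held 20 min.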

Sequence	soluble fraction (log2)
HMNVPFGFDEVNGKLVKNEEEQAIISEIKSLKNKGLSLRKIAEALNGRGIATKNGKAWTAVQIQRIA	-0.318
HMNVPLYIMIESAVEQRLLDGTYQVGKMIPTEFELMDEFSVSRETVRKAINLLVQRGKLEKKRGIGTFVAS	-3.28
HMNVSDIENKLNEMLSPLEKKVMVLYLEGKSYVEIGELLGRHTKSVDNALQRVKRKLEIYLKNRK	-2.62
HMNVTIGESIKNVINHYGTPIYSYNPNNQEKYYEFHTNKGVLVVTAIGKKNTGYVTRVSMTY	-1.04
HMNVVDTGTDANYRVKISAVNLNMRLGPSTSYKSKGYITPGNYTIIKTSGDWGKVKETGYWVALKYTSKIN	-3.16
HMNVVINNELVSLMVEAMKDGVSSKSIQEEFEGYKISGKTITKKVLTAHVNKALEVFADMQE	-0.582
HMNYDPEEKITQIRTMLEIHSRIEFNEIITPATRRGEIIIIFLALLHMIKRGYIVVRQHRLFGDITIFARD	0.0974
HMNYKDQISRYFQQAFHIYPKYQTMKNEEGNFTSKIFKDDKMIIEGVGKSKKKAEQDVSRKALIHFNVL	-0.376
HMNYKNAIGQVGSVYVPIPPNREGLGQIEVKVQSRVSTVRAVSDHSERLENRVAVRVIELVDDRTLLVEKL	-1.15
HMNYTSEDIKLASELFFHLLNNRILPANDVLASQYYDNNEIREILENMAEEGGLRIFGTRENLHLVSNGE	0.00512
HMNYYDLLGIPKSATKQQIRKAYRTKAKEFHPDVNGPFNSHMHFLLLKQAYETLMDANMRHVYDMALIS	-2.4
HMPADHYEVLGIARDADAAEVKRAYRRLARESHPDANHGDSGAEVRFKAVSAAYEVLSDPERRARYDRFGH	0.0495
HMPANVELLRTFTNKTGTKIKARIVAVSDNKVKLIRDDSKKFIVPIDSLSEEDQKYLKDWIANEVGEQ	-0.16
HMPARTANEEAIRKYLLNHDSITRKETQALLKTGQSAAGRILKEMVENGWLARIGNGRSTGYELR	-0.222
HMPATIEGIRLYLSSGLIKGVGEEMASRIVKAFGTDTIRVLDEEPERLLKVRGVGKKSLDRIRTSWAEH	-0.366
HMPATPDATVQAVQQRLNELGYDVGSADGLMGRGTRSAIIAFQQDRGLAATGVADQALLLQLQP	0.105
HMPAWKINQELQATVIATKANQTRLRIEGQTFETQTAIALKPGQSLLIKVVSLEPQISFALI	-2.45
HMPDFLAELAARMERDAVTEAQIRQVVAQKGHYPEEVSPAQYHPDFFRQWLFPHWEKIVDVIRSSPEYTP	-0.126
HMPDGTATATASVNVRSGASTLSPVLGVLRVGESIGVTGQANGGWVPVNYNGRAGYVYAAYLSFD	-0.915
HMPDKIDSAAQGILDKLIRNDGFMAVTDKSPPEAIYKLFGVSKKVFKQAIGSLYKNRLITIEDAGLRIIPQ	-0.481
HMPDLKIGKDHRLAEYIETKIAEDGYSPGAVLGEIKAKGLEFETEISKPTLYSYIDKGIFLTITNKELPV	0.25
HMPDLQKAIDDLLQVVDKRLNTSFESILNEVNSEKEAVAFFLALLEAVRWGFVKASQSDEGIKIEK	0.211
HMPDLSAEERNIVEALQKSNDLQVNLIAVKTGMDMGTLSATLFGLEMKGLVKLMAGGTYHLI	-1.11
HMPDLSEDEEKIVSLLRDNNDLNVNIIVMRTQLPSATVTSSLFSLELKGVVRMYAGGMYHLM	-3.73
HMPDLSYVDEVLNRYKGHKGTLITVLQQVQAHKGYLEKEALERVARSMGVPTARIYGVVTFYAQFR	0.138
HMPDPVHAAYLRLAVLLTEQAIGPQVTEQQIRDRFALTRRQTSDLMGRLIREGIAEKRAGYGWNINTELTA	-1.16

Sequence	soluble fraction (log2)
HMPDVAIMNVSVEPEKKVVRLQVKAISLEALLDFSTRLEAIPARVELQNHTPSKELSQKWAVNATLIVIY	0.482
HMPDYYAILEVERTADAKTIKAAYRKLALAYHPDRNPGDQAAEERFKQINEAYAVLSDPEKRARYDRYGSV	-0.131
HMPEFKDMLKFFRMREHLSQSELAEKLGISASTVSMYEVGRRQPDFETEEKIADFFNTDLNTLRG	-0.693
HMPEGTYLEKLAIENNNLQLIGLSREASQLVQLLQDAPQWRKVNLTGVLQADGAASGRDRFTMTAELQ	0.0999
HMPEKNQITHLIRLIDDRDEFVRKRVREQLIKLGEDAIPFLEMAAKTENLEIQRIASEIIQAIIPRQ	-0.745
HMPELPPHELLRALMVEHDIKQSELPEVGPQPVVSDVLAGKRALNLRQVAALAARFHVPMEVFT	-0.161
HMPELSITDADIIVAGGRGMGSAENFGLIRELAGLLGAAVGASRVVVDAEWVDQKHLIGQTGK	-0.0455
HMPELTASDEADLKALVGGDQGFEQMANWARSNLGEEEINRFDAVVDSNNKDAIHMAIQAMQARMNA	-0.107
HMPELTERELEVLLLTARGLPSSEAARLLFITRRTVAAHLTSIYGKLGARNKTEAVLAALKRGIIMLDQIG	-3.99
HMPESYFEMLQKLLETYALPQEGTIYFSAADLARMPQKFEDVIEQTAQKKGGHLVVSKEPKDMDGGFVLV	-1.83
HMPEVAHTIDMEAVNKHWDELPEREQRILVMRFYGNLTQTEIGERLGISQMHVSRLLARALSHLKSRLLD	-3.89
HMPEVYPFEVAEDDAGKRLDVFLSEEIEEFTRSFIQKLIAGGLASVNRAPARASYRVKPRDLVELQVPE	-0.598
HMPFNREYWIEQLLKEVGLMGTPYAELDKHEVELDSPTGRASGFKVNAKTYVDQQLLFIENEYNNQPE	-0.533
HMPFREGDEVFVELVEPHMYNEDDAVAKLDGYVVAVRGAAGLVGQKVLVRIERVGRSSAEATLVA	-0.0609
HMPGEIKKIPINSISYQDLKQHPYFDAYLAKQVIKYRETKGRIENIEQFREATRAYQSLIEKVTPYLDFE	-0.302
HMPGGLSAEDVEKMVEKVLTVNGDVVEEIRSGRDPKGKKIKFLAGLVMRDARGQADAAAVSGILERRLKEG	0.0256
HMPGLITLEAAKTTALNHAKLTADQVTFVKQKLDRDDGRQVYEIEFYTSDYKEYDYEIDAVSGLILEVDYD	-0.866
HMPGLPLWAFSTRGSAIHTGASFRDGDGLLFGPESRGLPDWLLEEVGQDRVLRLPMRPGSRSLNLSNAV	-0.577
HMPGPAEMPGWITARAKKLGGQITPEAARALAAEMGSDTEQASREIEKLLTYVDYRRPVEEEDVALLTA	0.16
HMPGRKTTFEERLSIIEDLIKHDVNYSWAVDKYHVSYQQVYGWYQKYRKSGNDPQSLRDRRGK	-3.65
HMPGRPSRISDAVKDQIDHDLRKNPRDLGYSQNLWDGKLLSHHLKERYQITLGIRQAQRLFHQLGFRQR	-0.846
HMPGVLEVDTGGVAAVAYVDGVEVGRVPGELQIAAGTKTLMLKADRYLDYVQSLEIDGLGKRQLLVATLQS	-0.0797
HMPGVTTQLHRLNGTEETYIIKRGDGVLEIDGEKSELQLGDAIIIPAGASQKISNIGDEDLE	-0.159
HMPHFFISTSDVNQDIITVSDKENFHHIARVLRSKVGETLLLVDENRTQYKVVIQNIDSKSITTKVVETLK	-0.925
HMPHFGVVLQMDDWKTLRDRLEARDDIDWVMKPNLRFEGQPGEQATLFIRDPSGNALEFKGFADLSQVF	-0.116
HMPHSTTDFSVSPDERQIVYSTNLQGRYDLWALDHNQGYPYPLTKKGQMSFFIKHLPGSQMILTGFD	-0.161

Sequence	soluble fraction (log2)
HMPIDQAKRKKEIIQNFGIRKIYKFSEIFDLKFGRDNIIVTFLIILDMIKEGVVEINENKEEIEFEYK	-0.152
HMPIKYTHKGYTINVSRSKMNGTTFVKVVDPKGQVIQQSQDNRIQDVNQLVTTMKQYIDTLKPS	-0.274
HMPILRDEVYLSIKEAILTGELAPGERISIGRLLPQIGFSPTPIREALLKLEQEGFVSRLQRGGFIVSR	-1.91
HMPIQLLSEKYMDEHWDELDKDEVSLYQNMSIRFLLKHEDDINWKLYSTNPFISIDTIDFFKDKISWVNI	-2.34
HMPKAKASARNDTRTRLLTIGTEVLSQKGFASTGVEEILSVAGVPKGAFYYYFESKAAFGLAVIENYE	0.259
HMPKAMAIMSEIAGTVHIDDTKKSRHVEVTGVDDNGAPVTKSYLIPFGHRLKVMEGDVLVKGALLT	-0.0702
HMPKHHIESVIPENFAGERLDKVLAVLWGTFSRAQLTRWIRDGSLLLDGHKVKPNTKVDGSEKIVLQAEVA	-1.27
HMPKNEHETKAIGNQTGGRVFLFLNTDNINRDYNMYISKQVKFVREISQEYYGKVAVFEDLYGNLWDLIE	0.0316
HMPKNRTDYVQDVLKSLGRPAHYKEITQIINAMLPKEAQYSAKSIQVVLGSSPLFIRVGTGTYALVE	-1.73
HMPKNVEVPNVVGLSLPMAKLRLTQLGLHIVVRDSVWSETGQPNTILDQDPQPGKKIKPESTVYVKVN	-1.48
HMPKRYAGPDIIAIYGSDVFFRVGSGDGLMVIPVGRSMDNIEVVSVDAPRSVELMWKDGGPFTVPV	0.145
HMPKSKTPDDAAEEFRTAFSALDMDGKVTVKDMAEYMGVIDKTVYARLKKMGDEFTLDKGVITKKT	-0.104
HMPKTATIVIDLNYADAKEIVENLQTILAGETKDISVAPHPSANQIIASGDRWEVENISTIIKQLDR	0.26
HMPKTLTEAAYEDIKQWILEGEITPGSKISLEDTASRLEVSMTPIREALTKLQQEGLVEYIPRAGWRASK	-0.0907
HMPLAQRFGLTVAQARVLDLLAEGRSNRQIGELLGLTEGTVKIHVSAIMKAMGVSNRAEAALMANRKR	-1.7
HMPLDKDTTLDEIYRRFNMEHPADYKGHSLSMGDIVVFRQDGKQTAYYVDEGADYRQVPEFFVK	-0.0344
HMPLDPFVVDALRDEIINTIKQHEPRVDLQKVQVQPIYTQNRVNISVQYKIVGLPIVEDITFVLQRP	0.39
HMPLEKGVVILDVTPSSAKVAVDGTSVETTYPLRLSAGLHQLSAEADGYDSITEYFKVETEKTTVTLDLSK	0.236
HMPLEQAELRLDLKQAILQMDRQTQELLLLRYVDGLSPGEAGKVLELSRFAVYRREKEALRKLRDYFSH	-1.93
HMPLLSEWDAALEELWAKLGDVPMDPETERMDAPFLGFPAGTPREDIWHWFDERHSKGVAHLLYG	-2.46
HMPLQYRLTVQPTPTNARVRLVNSAFTYRPGVALPPGSYIVEVSSSGYGAKRQAVQIADGDVTVPVELEKI	-0.582
HMPLYKYYTSYQIEPGDTLTSIAQKYTINSDVSVQDYIDEVKKNNNLVSDKINSGSYLVVSYYSNEY	-1.36
HMPNIQLARNLKYLRLAYGLTQDDLGAFLNISRQAYSNYENLKRSPDLDSLIRLASLYHLSLDDLVSR	-3.31
HMPNTLAGIERYLGSGMVKGIGPVYASRLVSAFGTAVFDVIEQTPERLREIDGIGEKRTRKITSGWADQ	-0.213
